Data as given in the supplement of paper PMC9170038.

System: MS2 coat protein
Assay: apparent KD of MS2 coat protein; designed switch direction (-1 OFF switch, 1 ON switch): -1; higher = weaker reporter binding
In short: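 The buffer was Tris-HCl pH 7.5 with KCl, MgCl2, BSA, DTT, tRNA and Tween-20. In it, SNAP-549-labelled MS2 coat protein was titrated in doubling steps from 0.7 or 1.5 nM to 3 µM over chip-bound RNA switches transcribed by stalled E. coli RNA polymerase on Illumina chips. Apparent KD is the per-design median over clusters of curve fits to normalised fluorescence.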

[1] = Eterna round: R95, input ligand: microRNA oligo, concentration not stated
[2] = input ligand: microRNA oligo, concentration not stated
[3] = Eterna round: R95, input ligand: FMN 200 uM
[4] = Eterna round: R95, input ligand: none

Sequence	apparent KD of MS2 coat protein [1]	apparent KD of MS2 coat protein (input ligand: FMN 200 uM)	apparent KD of MS2 coat protein [2]	apparent KD of MS2 coat protein (input ligand: none)	apparent KD of MS2 coat protein [3]	apparent KD of MS2 coat protein [4]
UUAUUUAGUGUGAGGAUAUGCUGGUCGAUAGAUCAGCAGAAGGCACAUGAGGAUCACCCAUGUAAUAUAUUAAA [Mat - Exclusion 4 - JL Mod - D34] (puzzle: Brourd's mod of Exclusion 4)	51.5 nM	–	–	–	–	–
AAUGAUUGACGAGGAUAUUGUGUUAGAUCACGACGAGAAGGCGUCUGUCACAUGAGGAUCACCCAUGUGAGCCUGGUGGAUAGA [Ex NG1 #78] (Eterna round: R96, puzzle: Exclusion NG 1)	–	82.6 nM	35.1 nM	50 nM	–	–
AAGUACCGUCACGAUAGUGAUGGUACAGCAAGUAGUGAAACAUGAGGAUCACCCAUGUCCUCAAUUGCUCGUCUUAU [Sensor 3 - 82] (puzzle: Sensor v3, turn-off variant 2)	171 nM	–	–	–	110 nM	115 nM
UCUUUACAUGAGGAUCACCCAUGUGAGGAUAUGGUUUCGCUGGCCGUAGCCAGUGGAACCAGAAGGCGCGUGAU [Mat - Exclusion 1 - JL Mod - D25] (Eterna round: R97, puzzle: Exclusion 1)	–	55.1 nM	–	70.9 nM	–	–
CACCGUUAGAGAGGAUAUCGUACAUGAGGAUCACCCAUGUAAUAAAUGAGAAUUUCGGAUGUAUGCGAGAAGGCUCGAAUCGGC [Ostracism 33 - Jieux - Exclusion NG 2] (Eterna round: R96, puzzle: Exclusion NG 2)	–	–	38.6 nM	–	–	–
AUUUUAAUAUAGGAUAUCGAAAUUAUUAUUUAACGAGAAGGAUGAACAUGAGGAUCACCCAUGUGGUAUCAUGG [Mat - Exclusion 6 - JL Mod - D31] (puzzle: Exclusion 6)	192 nM	–	–	–	–	–
GGGAAGUGAGGAUAUAUGAGAGAGGCUGGACCGGAUGAGAAGUAGAAGGCACAUGAGGAUCACCCAUGUAGGGA [JR_Exclu4_Sub026] (puzzle: Exclusion 4)	152 nM	–	–	–	130 nM	209 nM
AAGAUGUUAGGAUAUCGAAGGUUGUGGCAGGCGGGAAUUUGCGAGAAGGAACAUGAGGAUCACCCAUGUGAAAU [JR_Exclu4_Sub043] (puzzle: Exclusion 4)	19.7 nM	–	–	–	–	–
GGUUGGCGAGGAUAUACAUGAGGAUCACCCAUGUGAGAGAAUAAAGUGAGGAAGAAAAGUAGAAGGCGCUGACG [salish99_ex3_r3_013] (puzzle: Exclusion 3)	42.1 nM	–	–	–	1030 nM	47 nM
GGUUGACAUGAGGAUCACCCAUGUGAGGAUAUGCGAGAGAAAAAAGUGAGGAAGAAUAGCAGAAGGCGCUGUCG [salish99-ex1_r3_011] (puzzle: Exclusion 1)	41.7 nM	–	–	–	44.6 nM	21.1 nM
GUAAUGAUUGUGAGGAUAUUUCAUAGAUAGAUAUUAGAGAAGGUACAUGAGGAUCACCCAUGUGUGAUUAUACA [Brourd's EX4 #72] (Eterna round: R97, puzzle: Brourd's mod of Exclusion 4)	–	97.3 nM	–	114 nM	–	–
ACUAGCUUUUUGCAUAUUAGGUUUGUUGCUUCGUAUGUAACAUGAGGAUCACCCAUGUAUUACUGAUGUCGUCGUUU [JR_SV3TOV2_Sub091] (puzzle: Sensor v3, turn-off variant 2)	17.3 nM	–	–	–	20 nM	16.9 nM
UGAUCUUGGGUCAGGAUAUGCUGGUAUUUUUGCCAGCAGAAGGGACAUGAGGAUCACCCAUGUUCUUGGUUUUU [Magic-14] (puzzle: Brourd's mod of Exclusion 4)	10.4 nM	–	–	–	–	–
GAUUAUGCGAGCUUUAGGGACAUGAGGAUCACCCAUGUUCGUCUUAUUAAUCUGGGUGCGCUAACAUACCUAAAUCU [JMF 52] (puzzle: Sensor v3, turn-off variant 1)	113 nM	–	–	–	56 nM	87.4 nM
